Patent US7947807B2, “Method for obtaining G protein-coupled receptor (GPCR) diffraction-quality crystals employing a monoclonal antibody that binds to the third intracellular loop (IL3)” (The Board of Trustees of the Leland Stanford Junior …, priority 2007, dated 2011)
“Also recorded” adds a separate entry of the source. Read-outs that look alike come from different tables or passages of the source.

B1: antibody 5: mouse monoclonal antibody binding a three dimensional epitope on the third intracellular loop of β2AR (protein)
light: DIKMTQSPSSMYASLGERVTITCKASQDINSYLSWFQQKPGKSPKTLIYRANRLVDGVPSRFIGTGSGQDYSLTISSLDYEDMGIYYCLQYDEFPYTFGGGTKLEIKRADAAPTVSIFPPSSEQLTSGGASVVCFLNNFYPKDINVKWKIDGSERQNGVLNSWTDQDSKDSTYSMSSTLTLTKDEYERHNSYTCEATHKTSTSPIVKSFNRNEC
heavy: EVQLQQSGAELARPGASVKLSCKASGYIFTDYYINWVRQRTGQGFEWIGEIYPGSGNIDYNERFKDKATLTADKSSSTAYMQLSSLTSEDSAVYFCVRGFGYWGQGTTLTVSSAKTTPPSVYPLAPGSAAQTNSMVTLGCLVKGYFPEPVTVTWNSGSLSSGVHTFPAVLQSDLYTLSSSVTVPSSTWPSETVTCNVAHPASSTKVDKKIVPRDCGC
B2: Fab 5: Fab fragment of antibody 5 generated by papain cleavage; light chain SEQ ID NO: 1, heavy chain SEQ ID NO: 2 (antibody)
heavy: B1 heavy
light: B1 light
modifications: mus musculis; UNSURE (0)...(0) Fab 5 Heavy chain; UNSURE (0)...(0) Fab5 light chain

What was measured:
β2AR [1] = biological target: T1, β2AR (Homo sapiens, UniProt P07550); assay: Saturation and competition binding assays on purified β2AR reconstituted in phospholipid vesicles, with and without prebound Fab 5; conditions: saturation binding, read-out: [3H]dihydroalprenolol Kd ± S.E.
T1 construct: hexahistidine (C); made in house; host or cells: Sf9 insect cells
Experimental: The effect of Fab binding on ligand binding properties and on agonist-induced three dimensional changes was determined.

β2AR [2] = biological target: T2, β2AR (Homo sapiens, UniProt P07550, A271C/I135W); assay: Bimane fluorescence assay of agonist-induced conformational change (β2AR labeled with monobromobimane at H271C); assay type: biochemical; conditions: 1 μM Fab5, 100 μM isoproterenol, 15 minutes
T2 construct: made in house
Excerpt: (§1) FIGS. 3A and 3B. […] The fragmented β2AR was visualized using an Alexa-680 labeled M1 antibody against the N-terminal Flag epitope. […] The loop is marked with MW indicators corresponding to N-terminal fragments containing the Flag epitope. Residues sensitive to trypsin digest are shown in red. 3B, The change in the bimane fluorescence of β2AR labeled with monobromobimane at H271C at the cytoplasmic end of TM6. Bimane fluorescence is quenched by W135 at the cytoplasmic end of TM3 upon agonist binding^9. […] Fluorescence intensity was corrected for background fluorescence from buffer and ligands in all experiments. The data are the mean±S.E. of two independent experiments performed in triplicate.
Purified receptor was reacted with 1:1 equivalent of monobromobimane (mBBr, Invitrogen) in buffer A (100 mM NaCl, 20 mM HEPES, pH 7.5, 0.1% dodecyl maltoside) and incubated overnight on ice in the dark. The fluorophore-labeled receptor was purified right before use by gel filtration on a desalting column equilibrated with buffer B. Fluorescence spectroscopy experiments were performed on a Spex FluoroMax-3 spectrofluorometer (Jobin Yvon Inc, NJ) with photon counting mode by using an excitation and emission bandpass of 4 nm. All experiments were performed at 25° C. For emission scans, excitation was set at 370 nm and emission was measured from 430-530 nm with an integration time of 1 s/nm. […]

β2AR-TMR = biological target: T3, β2AR-TMR (Homo sapiens, UniProt P07550); assay: Fluorescence of β2AR labeled at C265 with tetramethylrhodamine (β2AR-TMR), antibody dose-response; assay type: biochemical
T3 construct: made in house
Experimental: FIGS. 2A and 2B. Binding characteristics of β2AR-specific antibodies. 2A, Dot-blots showing binding of nine β2AR specific antibodies to denatured receptor. Equal amounts of β2AR denatured with SDS and β-mercaptoethanol were spotted in triplicate on nitrocellulose strips. The strips were blocked with 5% non-fat dry milk in PBS-Tween (0.05% Tween-20) and then probed with […] of the indicated antibodies diluted in blocking buffer. Binding of the primary antibody to the denatured β2AR was detected with an Alexa-688 labeled anti-mouse secondary antibody. The top panel is a graphical representation of the average dot intensity from three independent experiments. The lower panel is a representative experiment. […] 2B, Dose-response curves showing the effect on increasing amounts of antibodies 4-9 on the fluorescence of β2AR labeled at C265 with tetramethylrhodamine (β2AR-TMR). β2AR-TMR was diluted to 4 nM in 500 μL of buffer consisting of 0.1% dodecylmaltoside, 100 mM sodium chloride, and 20 mM HEPES buffer (pH 7.5). […]
To select for antibodies that may interact with IC3, we examined the effect of antibody binding on the fluorescence of β2AR labeled at C265 (at the cytoplasmic end of TM6) with tetramethylrhodamine. […] As such, antibodies binding to IC3 may stabilize a specific conformation of TM5 relative to TM6 that would be detected by a change in tetramethylrhodamine fluorescence.

denatured β2AR = biological target: T4, denatured β2AR (Homo sapiens, UniProt P07550); assay: Dot-blot binding of antibodies to SDS-denatured β2AR; conditions: β2AR denatured with SDS, spotted on nitrocellulose
T4 construct: hexahistidine (C); made in house; host or cells: Sf9 insect cells
Experimental: FIGS. 2A and 2B. Binding characteristics of β2AR-specific antibodies. 2A, Dot-blots showing binding of nine β2AR specific antibodies to denatured receptor. Equal amounts of β2AR denatured with SDS and β-mercaptoethanol were spotted in triplicate on nitrocellulose strips. The strips were blocked with 5% non-fat dry milk in PBS-Tween (0.05% Tween-20) and then probed with […] of the indicated antibodies diluted in blocking buffer. Binding of the primary antibody to the denatured β2AR was detected with an Alexa-688 labeled anti-mouse secondary antibody. The top panel is a graphical representation of the average dot intensity from three independent experiments. The lower panel is a representative experiment. The binding of all 9 antibodies to denatured β2AR is reduced compared to M1 binding to the linear Flag epitope. 2B, Dose-response curves showing the effect on increasing amounts of antibodies 4-9 on the fluorescence of β2AR labeled at C265 with tetramethylrhodamine (β2AR-TMR). β2AR-TMR was diluted to 4 nM in 500 μL of buffer consisting of 0.1% dodecylmaltoside, 100 mM sodium chloride, and 20 mM HEPES buffer (pH 7.5). Data represent an n of 3.
Antibodies were screened for binding to a three dimensional epitope on the three-dimensional surface on the IC3 of the native β2AR, rather than a flexible linear epitope. […]

[3] = biological target: T5, flag tagged β2AR stably expressed in HEK-293 cells (Homo sapiens, UniProt P07550); assay: Immunofluorescence staining of HEK-293 cells stably expressing flag tagged β2AR, nonpermeabilized or permeabilized; assay type: cell-based; conditions: compared with M1 antibody
T5 construct: expressed in transfected cells
Experimental: HEK-293 cells stably expressing a flag tagged version of the β2AR were cultured on coverslips and processed for immunocytochemistry. After fixation, with 4% paraformaldehyde, the cells were washed and blocked with 2.5% goat serum in PBS alone (nonpermeabilized) or with 0.5% NP-40 in PBS (permeabilized). The cells were incubated with the β2AR specific antibody indicated on the left side of the figure. After several washes, the β2AR monoclonal antibodies were detected with a Texas Red conjugated anti-mouse secondary antibody. […] The images shown are representative of at least 3 experiments. All images were acquired using an Axioplan 2 microscope (Carl Zeiss MicroImaging), fitted with a camera (RTE/CCD-1300-Y/HS; Roper Scientific) controlled using IPLab software (BD Bioscience).
The antibodies were characterized as binding the intracellular or extracellular surface of the receptor in immunofluorescence experiments with HEK-293 cells stably expressing an N-terminally FLAG-tagged version of the β2AR. Antibodies that recognize an intracellular epitope only stain permeabilized cells.

β2AR [4] = biological target: T1, β2AR; assay: Coupling of purified β2AR to purified G protein; assay type: biochemical; conditions: data not shown
β2AR [5] = biological target: T1, β2AR; assay: Limited tryptic digestion of purified β2AR with and without Fab 5, Western blot; assay type: biochemical; conditions: preincubated with Fab 5; M1 anti-FLAG Western blot
Excerpt: as §1
Cleavage of purified β2AR with trypsin yielded two bands with molecular weights of approximately 27 and 29 kDa on a Western blot probed with the M1 anti-FLAG antibody (FIG. 3A). The sizes of these fragments indicate trypsin digestion at two of ten potential sites in IC3 (FIG. 3A).

Row | Molecule | Kd (β2AR [1]; β2AR without prebound Fab 5) [nM] | Kd (β2AR [1]; β2AR-Fab5 (prebound Fab 5)) [nM] | effect on agonist-induced bimane fluorescence change (β2AR [2]) | affinity for the β2AR (in words) (β2AR-TMR; from β2AR-TMR dose-response curves, FIG. 2B) | fluorescence response of β2AR-TMR (β2AR-TMR; β2AR labeled at C265 with tetramethylrhodamine) | binding to denatured β2AR (denatured β2AR) | immunostaining on binding to native receptor in fixed cells [3] | coupling of purified β2AR to purified G protein (β2AR [4]) | protection of IC3 from trypsin cleavage (β2AR [5])
1 | CCCc1ccccc1OCC(O)CNC(C)C (stereo not shown) [[^3H]dihydroalprenolol] | 1.02 ± 0.09 | 1.08 ± 0.05 | – | – | – | – | – | – | –
2 | B1 | – | – | not affected | highest affinity; also recorded: relatively high affinity | largest fluorescence response; also recorded: significantly greater than the response to antibody 9 | weakest binding to denatured protein; also recorded: bound weakly | comparable to M1 | – | –
3 | B2 | – | – | did not restrict the movement of transmembrane segments | – | – | – | – | prevented coupling | the 27 kDa band disappears; also recorded: protects the N-terminal end of the loop
